The target in assay [1] is T1, hFcRn-β2M-Biotin (human, UniProt P55899 24-297; P61769 21-119, biotin (site and chain not stated)). In words: binding kinetics on hFcRn-β2M-Biotin, signal (nm) against time (sec); construct diluted 1:5 from 200 nM, concentrations not labelled on the sheet; platform not named. The method, then:
(§1) Binding affinity of VEGF antagonists to Fc receptors CD16 (FcγRIIIa), CD64 (FcγRI), and FcRn was evaluated using hCD16-biotin, hCD64-biotin, and hFcRn-β2M-biotin.
(§2) For FcγRIIIa and FcγRI binding assessments, each construct was diluted 1:5 from a starting concentration of 50 nM, except Hex-REGN3 (IgG1) Mut1 PVA/P329A, which was evaluated only at the highest concentration. For FcRn assessments, each construct was diluted 1:5 from a starting concentration of 200 nM, except Hex-REGN3 (IgG1) Mut1 PVA/P329A, which was evaluated only at the highest concentration.

Another assay concerns the target T2, hCD16a-Biotin (human, UniProt P08637 17-208, biotin (site not stated)).
T2 construct: also called CD16 (FcγRIIIa); CD16a (FcGRIIIa)
In words: binding kinetics on hCD16a-Biotin, signal (nm) against time (sec); platform not named. The method, then:
as §1, §2

The target of assay [2] is T3, hCD64-Biotin (human, UniProt P12314 16-288, limits assumed, biotin (site not stated)).
T3 construct: also called CD64 (FcγRI); CD64 (FcGRI)
T3 sequence (P12314 16-288 limits assumed): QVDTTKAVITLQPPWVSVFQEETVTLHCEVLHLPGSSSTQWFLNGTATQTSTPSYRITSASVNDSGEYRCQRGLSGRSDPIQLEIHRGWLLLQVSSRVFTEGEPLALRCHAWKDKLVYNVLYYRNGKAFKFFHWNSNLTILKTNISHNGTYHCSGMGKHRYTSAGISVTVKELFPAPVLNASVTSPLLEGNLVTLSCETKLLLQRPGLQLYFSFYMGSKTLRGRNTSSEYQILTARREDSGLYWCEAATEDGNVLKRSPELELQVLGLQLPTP
The experiment in a line: binding kinetics on hCD64-Biotin, signal (nm) against time (sec); construct diluted 1:5 from 50 nM, concentrations not labelled on the sheet; platform not named. The method, then: as §1, §2

Assay [3] deals with T3, hCD64-Biotin. The experiment in a line: binding kinetics on hCD64-Biotin, instrument not named. The method, then: as §1, §2
Assay [4] has as its target T1, hFcRn-β2M-Biotin. In words: binding kinetics on hFcRn-β2M-Biotin, instrument not named. The protocol:
as §1, §2

The target of assay [5] is T3, hCD64-Biotin. The experiment in a line: binding kinetics on hCD64-Biotin, signal (nm) against time (sec); platform not named. The method, then: as §1, §2

T2 sequence (P08637 17-208 limits assumed): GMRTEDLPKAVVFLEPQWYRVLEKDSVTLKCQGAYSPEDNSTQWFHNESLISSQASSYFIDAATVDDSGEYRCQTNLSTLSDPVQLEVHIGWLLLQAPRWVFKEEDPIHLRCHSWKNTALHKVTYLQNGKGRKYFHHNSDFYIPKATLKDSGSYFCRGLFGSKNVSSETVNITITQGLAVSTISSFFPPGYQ
T1 sequence (P55899 24-297 limits assumed, chain 1 of 2): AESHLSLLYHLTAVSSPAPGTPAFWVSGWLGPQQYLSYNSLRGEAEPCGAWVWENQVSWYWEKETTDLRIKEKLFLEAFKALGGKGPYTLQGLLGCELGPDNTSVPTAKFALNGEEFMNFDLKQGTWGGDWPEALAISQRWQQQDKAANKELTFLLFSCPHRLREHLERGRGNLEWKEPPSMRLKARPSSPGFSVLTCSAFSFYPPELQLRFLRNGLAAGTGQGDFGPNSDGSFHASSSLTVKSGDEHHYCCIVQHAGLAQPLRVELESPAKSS
T1 sequence (P61769 21-119 limits assumed, chain 2 of 2): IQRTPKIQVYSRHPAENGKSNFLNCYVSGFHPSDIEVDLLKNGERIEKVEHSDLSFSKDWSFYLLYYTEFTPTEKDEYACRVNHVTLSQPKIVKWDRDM

B1: Hex-REGN3 (IgG1) Mut2 LALAPG (Fc fusion)
chain: SDTGRPFVEMYSEIPEIIHMTEGRELVIPCRVTSPNITVTLKKFPLDTLIPDGKRIIWDSRKGFIISNATYKEIGLLTCEATVNGHLYKTNYLTHRQTNTIIDVVLSPSHGIELSVGEKLVLNCTARTELNVGIDFNWEYPSSKHQHKKLVNRDLKTQSGSEMKKFLSTLTIDGVTRSDQGLYTCAASSGLMTKKNSTFVRVHEKDKTHTCPPCPAPEAAGGPSVFLFPPKPKDTLMCSRTPEVTCVVVDVSHEAPEVKFNWYVDGVEVHNAKTKPREEQYNSTYRVVSVLTVLHQDWLNGKEYKCKVSNKALGAGIEKTISKAKGQPREPQVYTLPPSRDELTKNQVSLTCLVKGFYPSDIAVEWESNGQPENNYKTTPPVLDSDGSFFLYSKLTVDKSRWQQGNVFSCSVMHEALHNHYTQKSLSLSPGKPTLYNVSLVMSDTAGTCY
notes: Hexameric VEGF antagonist designed as six dimers
As to B1, the results for the binding result with hFcRn-β2M-Biotin [1], in the assay with hCD16a-Biotin and with hCD64-Biotin [2] were “binds”, “no binding (tested: 50 nM (not printed on the sheet))” and “binds”, respectively.

B2: Hex-REGN3 (IgG1) Mut1 LALAPG (Fc fusion)
chain: SDTGRPFVEMYSEIPEIIHMTEGRELVIPCRVTSPNITVTLKKFPLDTLIPDGKRIIWDSRKGFIISNATYKEIGLLTCEATVNGHLYKTNYLTHRQTNTIIDVVLSPSHGIELSVGEKLVLNCTARTELNVGIDFNWEYPSSKHQHKKLVNRDLKTQSGSEMKKFLSTLTIDGVTRSDQGLYTCAASSGLMTKKNSTFVRVHEKDKTHTCPPCPAPEAAGGPSVFLFPPKPKDTLMISRTPEVTCVVVDVSHEDPEVKFNWYVDGVEVHNAKTKPREEQYNSTYRVVSVLTVCHQDWLNGKEYKCKVSNKALGAPIEKTISKAKGQPREPQVYTLPPSREEMTKNQVSLTCLVKGFYPSDIAVEWESNGQPENNYKTTPPVLDSDGSFFLYSKLTVDKSRWQQGNVFSCSVMHEALHNHYTQKSLDKSTGKPTLYNVSLIMSDTGGTCY
notes: Hexamer of six dimers (VEGFR1 domain 2 - VEGFR2 domain 3 - IgG1 Fc - IgM tailpiece); also called HEX-REGN3 (IgG1) LALAPG Mut1; hexameric Hex-REGN3
Usually Kd stands for the concentration at which binding is half-saturated. As a reminder, the koff is the rate constant with which the complex falls apart. High values mean a short-lived complex, low ones a long-lived complex. Usually kon stands for the second-order rate constant of association. Lower therefore signals slower complex formation. As to B2, in the assay with hCD64-Biotin [3], binding was put at a Kd of 63.8 pM, the koff was 0.000511 s⁻¹ and the on-rate constant (kon) turned out to be 8.01e+06 M⁻¹ s⁻¹. Moreover, the binding result in the assay with hCD16a-Biotin is on record as “no binding (tested: 50 nM (not printed on the sheet))”. Moreover, in the assay with hFcRn-β2M-Biotin [4], the Kd was < 1 pM, the dissociation rate constant (koff) is < 1e-07 s⁻¹ and the kon is 31000 M⁻¹ s⁻¹.

B3: Hex-REGN3 (IgG1) Mut1-V2 PVA/P329A (Fc fusion)
chain: SDTGRPFVEMYSEIPEIIHMTEGRELVIPCRVTSPNITVTLKKFPLDTLIPDGKRIIWDSRKGFIISNATYKEIGLLTCEATVNGHLYKTNYLTHRQTNTIIDVVLSPSHGIELSVGEKLVLNCTARTELNVGIDFNWEYPSSKHQHKKLVNRDLKTQSGSEMKKFLSTLTIDGVTRSDQGLYTCAASSGLMTKKNSTFVRVHEKDKTHTCPPCPAPPVAGPSVFLFPPKPKDTLMISRTPEVTCVVVDVSHEDPEVKFNWYVDGVEVHNAKTKPREEQYNSTYRVVSVLTVCHQDWLNGKEYKCKVSNKALAAPIEKTISKAKGQPREPQVYTLPPSREEMTKNQVSLTCLVKGFYPSDIAVEWESNGQPENNYKTTPPVLDSDGSFFLYSKLTVDKSRWQQGNVFSCSVMHEALHNHYTQKSLDKSTGKPTLYNVSLVMSDTAGTCY
notes: Hexameric VEGF antagonist designed as six dimers; also called Hex-REGN3 (IgG1) Mut1 PVA/P329A
As to B3, the binding result in the assay with hCD16a-Biotin and with hCD64-Biotin [5] was “no binding (tested: 50 nM (not printed on the sheet))” throughout.

The record behind these values is patent publication US20260055171A1 (Regeneron, published 2026).
